# According to patent US20240254209A1 (published 2024):
# T1: Ara h 2 peptide DSYERDPYSPSQDPY
# T1 construct: peptide of the Luminex peptide array
# T1 peptide: DSYERDPYSPSQDPY
# T2: Ara h 2 peptide PYSPSQDPYSPSPYD
# T2 construct: peptide of the Luminex peptide array
# T2 peptide: PYSPSQDPYSPSPYD
# Columns and labels:
# [1] = target: T1, Ara h 2 peptide DSYERDPYSPSQDPY; assay: Luminex peptide array
# Excerpt: (§1) Peptide microarray. The inventor used peptide arrays to help determine the approximate locations of the antigenic sites targeted by his human IgE mAbs. In collaboration with Dr. Hugh Sampson at Mount Sinai he tested Ara h 2-specific IgE mAbs using a Luminex peptide array technology (Shreffler et al., 2004). […] Several of the Ara h 2 site CR-A-specific IgE mAbs, however, bound strongly to peptide […] at the C-terminus of the allergen protein. Ara h 2 site SP-B-specific antibody 38B7, which competes with all Ara h 2 site CR-B antibodies, bound to two peptides […] and […]. […] In that paper the authors used the fusion protein to define an immunodominant population of IgE antibodies in the sera of peanut allergic subjects, which is the population the inventor defines here as site CR-B, the immunodominant antigenic site of Ara h 2. This region has also been described previously as being an immunodominant target of the Ara h 2 and Ara h 6 IgE antibody response seen in human sera (Chen et al., 2016). These peptides make up the disordered loop between helices 2 and 3 of Ara h 2, the region that differs between Ara h 2.01 and Ara h 2.02 isoforms, not present in the crystal structure due to its high degree of flexibility. […]
# [2] = target: T2, Ara h 2 peptide PYSPSQDPYSPSPYD; assay: Luminex peptide array
# Excerpt: as §1
# peanut allergen Ara h 8 = target: T3, peanut allergen Ara h 8 (peanut (Arachis hypogaea)); assay: ImmunoCAP, hybridoma supernatant
# T3 construct: ImmunoCAP component F352; also called F352
# Method: (§2) Verification and validation of IgE mAbs peanut allergen specificity. Following the unbiased generation of IgE secreting human hybridomas from peanut allergic subject PBMCs, peanut protein binding and peanut allergen protein specificity was determined. Hybridoma culture supernatant was initially used for this validation. […] Using the available ImmunoCAP components (purified allergen proteins: Ara h 1, F422; Ara h 2, F423; Ara h 3, F424; Ara h 8 F352; Ara h 9 F427), the exact allergen specificity was determined for those which bound Ara h 1, 2, and 3.
# (§3) Hybridoma cell culture supernatant was used for initial identification of allergen specificity using ImmunoCAP analysis. Peanut reactivity was first determined using peanut ImmunoCAP. Component analysis identified IgE antibodies specific for Ara h 1, 2, and 3. All antibodies not identified in this table were determined to bind Ara h 6.
# peanut allergen Ara h 3 = target: T4, peanut allergen Ara h 3 (peanut (Arachis hypogaea)); assay: ImmunoCAP, hybridoma supernatant
# T4 construct: also called F424
# Method: as §2, §3
# peanut allergen Ara h 9 = target: T5, peanut allergen Ara h 9 (peanut (Arachis hypogaea)); assay: ImmunoCAP, hybridoma supernatant
# T5 construct: ImmunoCAP component F427; also called F427
# Method: as §2, §3
binder,measurement,setting,value
"human IgE mAb 38B7 (antibody, V domains shown, human IgE from hybridoma) VH: QVQLVESGGGVVQPGRSLRLSCVGSGFTFRRDAKYWVRQAPGKGLEWVAAISHDGGEEDYAESVKGRFTISRDNSRETVYLEMNSLRPEDTAVYYCATTRSGWYFDYWGQGALVTVSS VL: EIVLTQSPATLSLSPGARATLSCRASQSVDTYLAWYQQRRGQSPRLLIYDASKRATGIPARFSGSGSGTDFTLTISSLEPEDFAVYYCQQRNNWRTWTFGQGTKVEIN",binding result,[1],binds
same,binding result,[2],binds
same,ImmunoCAP kUA/L,peanut allergen Ara h 8,0.15 kUA/L
same,ImmunoCAP kUA/L,peanut allergen Ara h 3,0.23 kUA/L
same,ImmunoCAP kUA/L,peanut allergen Ara h 9,0.11 kUA/L
